For assay [1], the target named is T1, Active human KLK5 (human, UniProt Q9Y337 67-293).
T1 construct: glycosylated; also called Hu KLK5; KLK5 analyte (prepared in house)
Kind of assay: SPR; repeats Table 3 (footnote: as described in example 4 and Table 3).

The target in assay [2] is T1, Active human KLK5. The experiment in a line: cell-based or functional assay.
A further assay concerns the target T2, Active cyno KLK5 (cynomolgus monkey, UniProt Q9Y337 67-293 (human entry)).
T2 chain: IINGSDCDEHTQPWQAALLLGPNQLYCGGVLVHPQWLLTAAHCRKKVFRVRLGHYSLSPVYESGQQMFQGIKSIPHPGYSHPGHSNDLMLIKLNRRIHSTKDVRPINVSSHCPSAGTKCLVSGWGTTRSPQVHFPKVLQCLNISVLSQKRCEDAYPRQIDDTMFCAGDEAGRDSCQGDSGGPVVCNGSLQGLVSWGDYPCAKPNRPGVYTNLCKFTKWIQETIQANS
The experiment in a line: cell-based or functional assay.

Assay [3] addresses T1, Active human KLK5. The experiment in a line: SPR, Biacore T200, 25 C; mIgG captured on anti-mouse Fc, human KLK5 as analyte (20-0.25 nM), 1:1 model. The protocol: The kinetics of murine IgG molecules binding to human KLK5 were assessed by surface plasmon resonance (Biacore T200, (GE Life Sciences™) at 25° C.
Kinetic parameters were determined using a 1:1 binding model using Biacore T200 Evaluation software.
On the technique in general: Surface plasmon resonance follows binding to a sensor surface in real time, without labels.

In assay [4] the target is T1, Active human KLK5. The experiment in a line: SPR, Biacore T200, 25 C; IgG from supernatant captured on anti-human Fc, human KLK5 as analyte (20-0.08 nM), 1:1 model. The protocol:
(§1) A goat anti-human IgG Fc specific antibody (Jackson ImmunoResearch) was immobilized on a CM5 Sensor Chip via amine coupling chemistry to a level of approximately 6000RU. Each analysis cycle consisted of capture of the anti-KLK5 IgG from supernatants to the anti Fc surface, injection of KLK5 analyte (prepared in house) for 180 s at 30 μl/min followed by 600 s dissociation. At the end of each cycle the surface was regenerated at a flowrate of 10 μL/min using a 60 s injection of 50 mM HCl followed by a 30 s injection of 5 mM NaOH and a final 60 s injection of 50 mM HCl. Human KLK5 was titrated from 20 nM to 0.08 nM (5×3-fold serial dilutions) for the supernatant in HBS-EP+ running buffer (GE Healthcare®) supplemented to a final concentration of 300 mM NaCl. Buffer blank injections were included to subtract instrument noise and drift. Kinetic parameters were determined using a 1:1 binding model using Biacore T200 Evaluation software (version 3.0). Experiments were carried out at 25° C.

For assay [5], the target named is T1, Active human KLK5. Kind of assay: SPR, Biacore T200, 25 C; IgG from supernatant captured on anti-human Fc, human KLK5 as analyte (20-0.08 nM), 1:1 model; second run of the chimera; second run of the chimera (start and end of the assay). The protocol:
as §1

Assay [6] addresses T1, Active human KLK5. Kind of assay: SPR, Biacore T200, 25 C; IgG from supernatant captured on anti-human Fc, human KLK5 as analyte (20-0.08 nM), 1:1 model; run at the start or end of the assay. The method, then:
as §1

Where a chain is given by its changes, count along the chain named. Names and notes keep the numbering of the source.

By Kd is commonly meant the free concentration of one partner at which half of the binding sites on the other are occupied at equilibrium, for simple one-to-one binding. A lower Kd goes with tighter binding. As a reminder, the koff is the first-order rate constant of dissociation. Low values mean a long-lived complex, high ones a short-lived complex. As a reminder, the kon is the second-order rate constant of association. Read a high kon as faster complex formation.

B1: Rabbit antibody 10236 mIgG (rabbit variable regions on mouse constant regions) (antibody)
light: AYDMTQTPASVEVAVGGTVTIKCQASQSISSWLAWYQQKPGQPPKLLIYLASTLASGVSSRFKGSGSGTQFTLTISGVECADAATYYCQQGYTNSNIINTFGGGTEVVVKRTDAAPTVSIFPPSSEQLTSGGASVVCFLNNFYPKDINVKWKIDGSERQNGVLNSWTDQDSKDCTYSMSSTLTLTKDEYERHNSYTCEATHKTSTSPIVKSFNRNEC
heavy: QSVEESGGRLVTPGTPLTLTCTVSGFPLSNYAMSWVRQAPGKGLEWIGDIYPSDIIDYASWAKGRFTISQTSTTVELKITGPTTEDTATYFCARDNNDYGLDIWGPGTLVTVSSAKTTPPSVYPLAPGSAAQTNSMVTLGCLVKGYFPEPVTVTWNSGSLSSGVHTFPAVLQSDLYTLSSSVTVPSSTWPSETVTCNVAHPASSTKVDKKIVPRDCGCKPCICTVPEVSSVFIFPPKPKDVLTITLTPKVTCVVVDISKDDPEVQFSWFVDDVEVHTAQTQPREEQFNSTFRSVSELPIMHQDWLNGKEFKCRVNSAAFPAPIEKTISKTKGRPKAPQVYTIPPPKEQMAKDKVSLTCMITDFFPEDITVEWQWNGQPAENYKNTQPIMDTDGSYFVYSKLNVQKSNWEAGNTFTCSVLHEGLHNHHTEKSLSHSPGK
For B1, the Kd with Active human KLK5 [1] and with Active human KLK5 [3] was 0.172 nM throughout. The koff with Active human KLK5 [1] and with Active human KLK5 [3] was 0.000517 s⁻¹ in each case. Besides, the kon with Active human KLK5 [1] and with Active human KLK5 [3] was 3e+06 M⁻¹ s⁻¹ throughout. Besides, the “IC50 (M), inhibition of kallikrein protease activity (fluorogenic peptide substrate)” value (from here on “IC50 (M), inhibition”) with Active human KLK5 [2] was 2.4e-10 M; with Active cyno KLK5, 3.3e-11 M.

B2: Humanized antibody 10236 gL6 gH9 (antibody, V domains shown)
VH: EVQLQESGPGLVKPSGTLSLTCAVSGFPLSNYAMSWVRQPPGKGLEWIGDIYPSDIIDYASWAKGRVTISQDSSKTQVSLKLSSVTAADTAVYYCARDNNDYGLDIWGQGTLVTVSS
VL: AYDMTQSPSSLSASVGDRVTITCQASQSISSWLAWYQQKPGKAPKLLIYLASTLASGVPSRFSGSGSGTDFTLTISSLQPEDFATYYCQQGYTNSNIINTFGGGTKVEIKR
notes: Tested as IgG from supernatant captured by anti-human Fc
In the assay with Active human KLK5 [4], B2 registered a Kd of 0.475 nM, a koff of 0.00091 s⁻¹ and an association rate constant (kon) of 1.91e+06 M⁻¹ s⁻¹.

B3: Humanized antibody 10236 gL5 gH9 (antibody, V domains shown)
VH: B2 VH
VL: B2 VL with S63K
notes: as for B2
As for B3, in the assay with Active human KLK5 [4], the Kd is 0.484 nM, the koff was found to be 0.000929 s⁻¹ and the kon was found to be 1.92e+06 M⁻¹ s⁻¹.

B4: Humanized antibody 10236 gL5 gH12 (antibody, V domains shown)
VH: B2 VH with T76N
VL: B2 VL with S63K
notes: as for B2
In the assay with Active human KLK5 [4], B4 showed a Kd of 0.331 nM, a koff of 0.000669 s⁻¹ and a kon of 2.03e+06 M⁻¹ s⁻¹.

B5: Humanized antibody 10236 gL6 Q24R gH12 (antibody, V domains shown)
VH: B2 VH with T76N
VL: B2 VL with Q24R
In the assay with Active human KLK5 [4], B5 had a Kd of 0.333 nM, a koff of 0.000669 s⁻¹ and a kon of 2.01e+06 M⁻¹ s⁻¹.

B6: Humanized antibody 10236 gL5 gH10 (antibody, V domains shown)
VH: B2 VH with Q71V
VL: B2 VL with S63K
notes: as for B2
On to B6, for which, in the assay with Active human KLK5 [4], the Kd stood at 0.546 nM, the off-rate (koff) worked out at 0.00107 s⁻¹ and the kon is 1.97e+06 M⁻¹ s⁻¹.

B7: Humanized antibody 10236 gL5 gH11 (antibody, V domains shown)
VH: B2 VH with S73K
VL: B2 VL with S63K
notes: as for B2
Turning to B7, in the assay with Active human KLK5 [4], binding was characterised by a dissociation constant (Kd) of 0.481 nM, the koff turned out to be 0.000811 s⁻¹ and the kon was 1.69e+06 M⁻¹ s⁻¹.

B8: Humanized antibody 10236 gL6 gH11 (antibody, V domains shown)
VH: B2 VH with S73K
VL: B2 VL
notes: as for B2
For B8, in the assay with Active human KLK5 [4], the Kd was 0.475 nM, the dissociation rate constant (koff) was 0.000802 s⁻¹ and the kon came to 1.69e+06 M⁻¹ s⁻¹.

B9: Humanized antibody 10236 gL6 Q24K gH12 (antibody, V domains shown)
VH: B2 VH with T76N
VL: B2 VL with Q24K
As to B9, in the assay with Active human KLK5 [4], the Kd turned out to be 0.337 nM, the koff was 0.000687 s⁻¹ and the kon was 2.04e+06 M⁻¹ s⁻¹.

B10: Humanized antibody 10236 gL6 gH10 (antibody, V domains shown)
VH: B2 VH with Q71V
VL: B2 VL
notes: as for B2
In the assay with Active human KLK5 [4], B10 displayed a Kd of 0.541 nM, a koff of 0.00105 s⁻¹ and a kon of 1.93e+06 M⁻¹ s⁻¹.

B11: Rabbit/human antibody 10236 (chimera) (antibody, human IgG4 S228P, kappa)
light: AYDMTQTPASVEVAVGGTVTIKCQASQSISSWLAWYQQKPGQPPKLLIYLASTLASGVSSRFKGSGSGTQFTLTISGVECADAATYYCQQGYTNSNIINTFGGGTEVVVKRTVAAPSVFIFPPSDEQLKSGTASVVCLLNNFYPREAKVQWKVDNALQSGNSQESVTEQDSKDCTYSLSSTLTLSKADYEKHKVYACEVTHQGLSSPVTKSFNRGEC
heavy: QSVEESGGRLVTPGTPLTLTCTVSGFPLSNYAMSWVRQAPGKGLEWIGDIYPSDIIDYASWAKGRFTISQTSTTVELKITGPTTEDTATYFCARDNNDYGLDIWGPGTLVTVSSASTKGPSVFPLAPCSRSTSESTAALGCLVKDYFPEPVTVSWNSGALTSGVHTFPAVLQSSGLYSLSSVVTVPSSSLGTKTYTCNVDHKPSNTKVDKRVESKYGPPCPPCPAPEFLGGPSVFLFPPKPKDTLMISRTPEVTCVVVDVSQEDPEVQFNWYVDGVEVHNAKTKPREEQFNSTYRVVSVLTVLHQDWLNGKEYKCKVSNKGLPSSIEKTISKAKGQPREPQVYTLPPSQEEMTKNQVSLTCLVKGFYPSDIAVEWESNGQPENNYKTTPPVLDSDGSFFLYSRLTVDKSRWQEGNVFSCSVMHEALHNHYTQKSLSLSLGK
notes: also called rabbit/human chimera antibody
In the assay with Active human KLK5 [5], B11 had a Kd of 0.152 nM, a koff of 0.000409 s⁻¹ and a kon of 2.7e+06 M⁻¹ s⁻¹. Besides, in the assay with Active human KLK5 [6], the Kd came out at 0.168 nM, the koff was found to be 0.000451 s⁻¹ and the kon was 2.69e+06 M⁻¹ s⁻¹.

B12: Rabbit antibody 10273 mIgG (rabbit variable regions on mouse constant regions) (antibody, V domains shown)
VH: QSVEESGGRLVTPGTPLTLTCTVSGFSLSSYGMSWVRQAPGKGLEWIGIISSSGSTYYASWAKGRFTISKTSTTVDLKIASPTTEDTATYFCARDHIYRYDDYGDYPTYYGMDPWGPGTLVTVSS
VL: AVVLTQTPSPMSAAVGGTVTISCQSSQSVYNNNDLAWYQQKPGQPPKLLIYRASTLASGVPSRFSGSGSGTQFTLTISGVQCDDAATYYCLGGYDDDVDTYTFGGGTEVVVKR
For the molecule B12, the “IC50 (M), inhibition” value in the assay with Active human KLK5 [2] was 3.48e-11 M. Moreover, in the assay with Active cyno KLK5, the “IC50 (M), inhibition” value came out at 3.01e-10 M. For the same molecule, in the assay with Active human KLK5 [3], the Kd is 0.16 nM, the koff came out at 0.000184 s⁻¹ and the kon stood at 1.14e+06 M⁻¹ s⁻¹.

B13: Rabbit antibody 10236 (rabbit IgG) (antibody, V domains shown)
VL: AYDMTQTPASVEVAVGGTVTIKCQASQSISSWLAWYQQKPGQPPKLLIYLASTLASGVSSRFKGSGSGTQFTLTISGVECADAATYYCQQGYTNSNIINTFGGGTEVVVK
VH: QSVEESGGRLVTPGTPLTLTCTVSGFPLSNYAMSWVRQAPGKGLEWIGDIYPSDIIDYASWAKGRFTISQTSTTVELKITGPTTEDTATYFCARDNNDYGLDIWGPGTLVTVSS
For the molecule B13, the “IC50 (M), inhibition” value in the assay with Active human KLK5 [2] came to 1.74e-10 M; with Active cyno KLK5 it was 2.76e-11 M.

Source of the values: patent publication US20230075753A1 (UCB, published 2023).
